Measurements: PMC9364107 (The Journal of Biological Chemistry, 2022)

T1: SF3B1 ULM5 peptide (residues 333–351), wildtype (human, UniProt O75533-1 333-351)
T1 peptide: KRKSRWDETPASQMGGSTP

B1: U2AF2 UHM E394K (domain or fragment)
chain: TEVLCLMNMVLPEELLDDEKYEEIVEDVRDECSKYGLVKSIEIPRPVDGVEVPGCGKIFVEFTSVFDCQKAMQGLTGRKFANRVVVTKYCDPDSYHRRDFW
B2: U2AF2 UHM E397K (domain or fragment)
chain: TEVLCLMNMVLPEELLDDEEYEKIVEDVRDECSKYGLVKSIEIPRPVDGVEVPGCGKIFVEFTSVFDCQKAMQGLTGRKFANRVVVTKYCDPDSYHRRDFW
B3: U2AF2 UHM K453A (domain or fragment)
chain: TEVLCLMNMVLPEELLDDEEYEEIVEDVRDECSKYGLVKSIEIPRPVDGVEVPGCGKIFVEFTSVFDCQKAMQGLTGRAFANRVVVTKYCDPDSYHRRDFW

Target: T1, SF3B1 ULM5 peptide (residues 333–351), …
Experiment: ITC

First: B1
Second: B2
The “fold reduction in binding affinity against wildtype U2AF2 UHM” value of the first is lower: ~20 fold for the first, ~100 fold for the second.

In the case of B3, the “fold reduction in binding affinity against wildtype U2AF2 UHM” value is reported as 4 fold.
